In patent publication US20260248972A1, “DUAL RECEPTOR TARGETING RADIOLIGANDS AND USES THEREOF RELATED APPLICATIONS” (priority 2022, published 2026):

Experiment: in vivo
Details: BALB/c nude, mouse, iv, total radioactivity
Summary of the method: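 Tissue uptake given as % ID and % ID/g from γ counting of organs taken 4, 24 and 72 h after injection into BALB/c nude mice carrying subcutaneous AR42J xenografts (0.05-0.50 g). Tracers were ^177Lu-labelled at 95° C for 15 min in pH 4.5 NaOAc buffer and used neat or diluted in PBS containing 3 mg/mL ascorbate.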

[1] = in vivo, T/K Tumor/Kidney ratio
[2] = in vivo, T/P Tumor/Pancreas ratio
[3] = in vivo, T/Sp Tumor/Spleen ratio
[4] = in vivo, T/St Tumor/Stomach ratio

## CC(C)(C)C(=O)CN1C(=O)[C@H](NC(=O)Nc2cccc(C(=O)N[C@@H](CCC(=O)N[C@@H](CCC(=O)N[C@@H](CCC(=O)N[C@@H](CCCCNC(=O)COCCOCCNC(=O)COCCOCCNC(=O)CCC(C(=O)O)N3CCN(CC(=O)O)CCN(CC(=O)O)CCN(CC(=O)O)CC3)C(N)=O)C(=O)O)C(=O)O)C(=O)O)c2)CN(C2CCCCC2)c2ccccc21 (some centres unmarked) [^177Lu-C-4, metal not drawn, reference compound]
In vivo, % ID/g Blood
  tissue uptake at 4 h: 0.09 %ID/g
  tissue uptake at 24 h: 0.01 %ID/g
In vivo, % ID/g Femur
  tissue uptake at 4 h: 0.04 %ID/g
  tissue uptake at 24 h: 0.04 %ID/g
In vivo, % ID/g Heart
  tissue uptake at 4 h: 0.07 %ID/g
  tissue uptake at 24 h: 0.03 %ID/g
In vivo, % ID/g Intestine
  tissue uptake at 4 h: 0.12 %ID/g
  tissue uptake at 24 h: 0.04 %ID/g
In vivo, % ID/g Kidney
  tissue uptake at 4 h: 3.38 %ID/g
  tissue uptake at 24 h: 1.32 %ID/g
In vivo, % ID/g Liver
  tissue uptake at 4 h: 0.17 %ID/g
  tissue uptake at 24 h: 0.11 %ID/g
In vivo, % ID/g Lung
  tissue uptake at 4 h: 0.07 %ID/g
  tissue uptake at 24 h: 0.03 %ID/g
In vivo, % ID/g Muscle
  tissue uptake at 4 h: 0.02 %ID/g
  tissue uptake at 24 h: 0.01 %ID/g
In vivo, % ID/g Pancreas
  tissue uptake at 4 h: 0.03 %ID/g
  tissue uptake at 24 h: 0.01 %ID/g
In vivo, % ID/g Spleen
  tissue uptake at 4 h: 0.06 %ID/g
  tissue uptake at 24 h: 0.02 %ID/g
In vivo, % ID/g Stomach
  tissue uptake at 4 h: 0.06 %ID/g
  tissue uptake at 24 h: 0.03 %ID/g
In vivo, % ID/g Tumor
  tissue uptake at 4 h: 4.69 %ID/g
  tissue uptake at 24 h: 1.44 %ID/g

## C[C@@H](O)[C@H](NC(=O)[C@@H]1CSSC[C@H](NC(=O)[C@@H](Cc2ccccc2)NC(=O)[C@H](CCCCNC(=O)c2cccc(NC(=O)N[C@@H]3CN(C4CCCCC4)c4ccccc4N(CC(=O)C(C)(C)C)C3=O)c2)NC(=O)COCCOCCNC(=O)COCCOCCNC(=O)CN2CCN(CC(=O)O)CCN(CC(=O)O)CCN(CC(=O)O)CC2)C(=O)N[C@@H](Cc2ccc(O)cc2)C(=O)N[C@H](Cc2c[nH]c3ccccc23)C(=O)N[C@@H](CCCCN)C(=O)N[C@@H]([C@@H](C)O)C(=O)N1)C(=O)O [Compound I-41, DOTA-OEG-OEG-K(Z360)-f[CYwKTC]T-OH]
[1]
  tissue to tissue ratio at 24 h: 1.7
In vivo, T/L Tumor/Liver ratio
  tissue to tissue ratio at 24 h: 10
[2]
  tissue to tissue ratio at 24 h: 24
[3]
  tissue to tissue ratio at 24 h: 55
[4]
  tissue to tissue ratio at 24 h: 4
In vivo, uptake Kidney
  tissue uptake at 24 h: 9.7 %ID/g
In vivo, uptake Liver
  tissue uptake at 24 h: 1.5 %ID/g
In vivo, uptake Pancreas
  tissue uptake at 24 h: 0.7 %ID/g
In vivo, uptake Spleen
  tissue uptake at 24 h: 0.3 %ID/g
In vivo, uptake Stomach
  tissue uptake at 24 h: 4 %ID/g
In vivo, uptake Tumor
  tissue uptake at 24 h: 16.1 %ID/g

## C[C@@H](O)[C@H](NC(=O)[C@@H]1CSSC[C@H](NC(=O)[C@@H](Cc2ccccc2)NC(=O)COCCOCCNC(=O)[C@H](CCCCNC(=O)CC[C@H](NC(=O)CNC(=O)c2cccc(NC(=O)N[C@@H]3CN(C4CCCCC4)c4ccccc4N(CC(=O)C(C)(C)C)C3=O)c2)C(=O)O)NC(=O)COCCOCCNC(=O)COCCOCCNC(=O)COCCOCCNC(=O)COCCOCCNC(=O)COCCOCCNC(=O)CC[C@H](NC(=O)CN2CCN(CC(=O)O)CCN(CC(=O)O)CCN(CC(=O)O)CC2)C(=O)O)C(=O)N[C@@H](Cc2ccc(O)cc2)C(=O)N[C@H](Cc2c[nH]c3ccccc23)C(=O)N[C@@H](CCCCN)C(=O)N[C@@H]([C@@H](C)O)C(=O)N1)C(=O)O [Compound I-22, DOTA-gE-OEG-OEG-OEG-OEG-OEG-K(-gE-G-Z360)-OEG-f[CYwKTC]T-OH)]
[1]
  tissue to tissue ratio at 24 h: 0.6
In vivo, T/L Tumor/Liver ratio
  tissue to tissue ratio at 24 h: 12
[2]
  tissue to tissue ratio at 24 h: 5
[3]
  tissue to tissue ratio at 24 h: 12
[4]
  tissue to tissue ratio at 24 h: 7.5
In vivo, uptake Kidney
  tissue uptake at 24 h: 21.9 %ID/g
In vivo, uptake Liver
  tissue uptake at 24 h: 1.1 %ID/g
In vivo, uptake Pancreas
  tissue uptake at 24 h: 2.6 %ID/g
In vivo, uptake Spleen
  tissue uptake at 24 h: 1.1 %ID/g
In vivo, uptake Stomach
  tissue uptake at 24 h: 1.7 %ID/g
In vivo, uptake Tumor
  tissue uptake at 24 h: 12.7 %ID/g

## C[C@@H](O)[C@H](NC(=O)[C@@H]1CSSC[C@H](NC(=O)[C@@H](Cc2ccccc2)NC(=O)CNC(=O)COCCOCCNC(=O)[C@H](CCCCNC(=O)c2cccc(NC(=O)N[C@@H]3CN(C4CCCCC4)c4ccccc4N(CC(=O)C(C)(C)C)C3=O)c2)NC(=O)CN2CCN(CC(=O)O)CCN(CC(=O)O)CCN(CC(=O)O)CC2)C(=O)N[C@@H](Cc2ccc(O)cc2)C(=O)N[C@H](Cc2c[nH]c3ccccc23)C(=O)N[C@@H](CCCCN)C(=O)N[C@@H]([C@@H](C)O)C(=O)N1)C(=O)O [Compound I-53, DOTA-K(Z360)-OEG-G-f[CYwKTC]T-OH]
[1]
  tissue to tissue ratio at 24 h: 2.3
In vivo, T/L Tumor/Liver ratio
  tissue to tissue ratio at 24 h: 6.3
[2]
  tissue to tissue ratio at 24 h: 18
[3]
  tissue to tissue ratio at 24 h: 52
[4]
  tissue to tissue ratio at 24 h: 4.8
In vivo, uptake Kidney
  tissue uptake at 24 h: 7.15 %ID/g
In vivo, uptake Liver
  tissue uptake at 24 h: 2.57 %ID/g
In vivo, uptake Pancreas
  tissue uptake at 24 h: 0.91 %ID/g
In vivo, uptake Spleen
  tissue uptake at 24 h: 0.31 %ID/g
In vivo, uptake Stomach
  tissue uptake at 24 h: 3.36 %ID/g
In vivo, uptake Tumor
  tissue uptake at 24 h: 16.2 %ID/g

## CCCC[C@H](NC(=O)[C@H](Cc1c[nH]c2ccccc12)NC(=O)CNC(=O)[C@H](Cc1ccc(O)cc1)NC(=O)[C@H](C)NC(=O)[C@@H](CCC(=O)O)NC(=O)[C@@H](CCC(=O)O)NC(=O)[C@@H](CCC(=O)O)NC(=O)[C@@H](CCC(=O)O)NC(=O)[C@@H](CCC(=O)O)NC(=O)[C@@H](CCC(=O)O)NC(=O)CN1CCN(CC(=O)O)CCN(CC(=O)O)CCN(CC(=O)O)CC1)C(=O)N[C@@H](CC(=O)O)C(=O)N[C@@H](Cc1ccccc1)C(N)=O [^177Lu-C-2, metal not drawn, reference compound]
In vivo, % ID/g Blood
  tissue uptake at 4 h: 0.08 %ID/g
  tissue uptake at 24 h: 0.01 %ID/g
In vivo, % ID/g Femur
  tissue uptake at 4 h: 0.12 %ID/g
  tissue uptake at 24 h: 0.24 %ID/g
In vivo, % ID/g Heart
  tissue uptake at 4 h: 0.05 %ID/g
  tissue uptake at 24 h: 0.04 %ID/g
In vivo, % ID/g Intestine
  tissue uptake at 4 h: 0.06 %ID/g
  tissue uptake at 24 h: 0.05 %ID/g
In vivo, % ID/g Kidney
  tissue uptake at 4 h: 2.72 %ID/g
  tissue uptake at 24 h: 0.71 %ID/g
In vivo, % ID/g Liver
  tissue uptake at 4 h: 0.15 %ID/g
  tissue uptake at 24 h: 0.12 %ID/g
In vivo, % ID/g Lung
  tissue uptake at 4 h: 0.06 %ID/g
  tissue uptake at 24 h: 0.11 %ID/g
In vivo, % ID/g Muscle
  tissue uptake at 4 h: 0.06 %ID/g
  tissue uptake at 24 h: 0.01 %ID/g
In vivo, % ID/g Pancreas
  tissue uptake at 4 h: 0.01 %ID/g
In vivo, % ID/g Spleen
  tissue uptake at 4 h: 0.06 %ID/g
  tissue uptake at 24 h: 0.05 %ID/g
In vivo, % ID/g Stomach
  tissue uptake at 4 h: 0.21 %ID/g
  tissue uptake at 24 h: 0.17 %ID/g
In vivo, % ID/g Tumor
  tissue uptake at 4 h: 1.07 %ID/g
  tissue uptake at 24 h: 0.82 %ID/g
pancreas, % ID/g Pancreas, 24 h post-injection, n=3
  tissue uptake at 24 h: 0.02 %ID/g

## C[C@@H](O)[C@H](NC(=O)[C@@H]1CSSC[C@H](NC(=O)[C@@H](Cc2ccccc2)NC(=O)[C@H](CCCCNC(=O)c2cccc(NC(=O)N[C@@H]3CN(C4CCCCC4)c4ccccc4N(CC(=O)C(C)(C)C)C3=O)c2)NC(=O)CCOCCOCCOCCNC(=O)CN2CCN(CC(=O)O)CCN(CC(=O)O)CCN(CC(=O)O)CC2)C(=O)N[C@@H](Cc2ccc(O)cc2)C(=O)N[C@H](Cc2c[nH]c3ccccc23)C(=O)N[C@@H](CCCCN)C(=O)N[C@@H]([C@@H](C)O)C(=O)N1)C(=O)O [Compound I-48, DOTA-PEG3-K(Z360)-f[CYwKTC]T-OH]
[1]
  tissue to tissue ratio at 24 h: 1.8
In vivo, T/L Tumor/Liver ratio
  tissue to tissue ratio at 24 h: 2.7
[2]
  tissue to tissue ratio at 24 h: 14
[3]
  tissue to tissue ratio at 24 h: 19
[4]
  tissue to tissue ratio at 24 h: 4
In vivo, uptake Kidney
  tissue uptake at 24 h: 10.6 %ID/g
In vivo, uptake Liver
  tissue uptake at 24 h: 7.02 %ID/g
In vivo, uptake Pancreas
  tissue uptake at 24 h: 1.35 %ID/g
In vivo, uptake Spleen
  tissue uptake at 24 h: 1.02 %ID/g
In vivo, uptake Stomach
  tissue uptake at 24 h: 4.75 %ID/g
In vivo, uptake Tumor
  tissue uptake at 24 h: 18.9 %ID/g

## C[C@@H](O)[C@H](NC(=O)[C@@H]1CSSC[C@H](NC(=O)[C@@H](Cc2ccccc2)NC(=O)COCCOCCNC(=O)[C@H](CCCCNC(=O)CCC(C(=O)O)N2CCN(CC(=O)O)CCN(CC(=O)O)CCN(CC(=O)O)CC2)NC(=O)COCCOCCNC(=O)CC[C@H](NC(=O)CC[C@H](NC(=O)c2cccc(NC(=O)N[C@@H]3CN(C4CCCCC4)c4ccccc4N(CC(=O)C(C)(C)C)C3=O)c2)C(=O)O)C(=O)O)C(=O)N[C@@H](Cc2ccc(O)cc2)C(=O)N[C@H](Cc2c[nH]c3ccccc23)C(=O)N[C@@H](CCCCN)C(=O)N[C@@H]([C@@H](C)O)C(=O)N1)C(=O)O (some centres unmarked) [^177Lu-1-13, metal not drawn]
In vivo, % ID/g Adrenal gland
  tissue uptake at 4 h: 3.6 %ID/g
  tissue uptake at 24 h: 0.81 %ID/g
  tissue uptake at 72 h: 0.73 %ID/g
In vivo, % ID/g Blood
  tissue uptake at 4 h: 0.64 %ID/g
  tissue uptake at 24 h: 0.09 %ID/g
  tissue uptake at 72 h: 0.03 %ID/g
In vivo, % ID/g Femur
  tissue uptake at 4 h: 0.21 %ID/g
  tissue uptake at 24 h: 0.27 %ID/g
  tissue uptake at 72 h: 0.14 %ID/g
In vivo, % ID/g Heart
  tissue uptake at 4 h: 0.54 %ID/g
  tissue uptake at 24 h: 0.19 %ID/g
  tissue uptake at 72 h: 0.11 %ID/g
In vivo, % ID/g Intestine
  tissue uptake at 4 h: 0.89 %ID/g
  tissue uptake at 24 h: 0.37 %ID/g
  tissue uptake at 72 h: 0.22 %ID/g
In vivo, % ID/g Kidney
  tissue uptake at 4 h: 58.6 %ID/g
  tissue uptake at 24 h: 46.7 %ID/g
  tissue uptake at 72 h: 22.5 %ID/g
In vivo, % ID/g Liver
  tissue uptake at 4 h: 0.79 %ID/g
  tissue uptake at 24 h: 1.21 %ID/g
  tissue uptake at 72 h: 0.52 %ID/g
In vivo, % ID/g Lung
  tissue uptake at 4 h: 1.57 %ID/g
  tissue uptake at 24 h: 0.43 %ID/g
  tissue uptake at 72 h: 0.38 %ID/g
In vivo, % ID/g Muscle
  tissue uptake at 4 h: 0.08 %ID/g
  tissue uptake at 24 h: 0.08 %ID/g
  tissue uptake at 72 h: 0.05 %ID/g
In vivo, % ID/g Pancreas
  tissue uptake at 4 h: 1.59 %ID/g
  tissue uptake at 24 h: 1.21 %ID/g
  tissue uptake at 72 h: 0.91 %ID/g
In vivo, % ID/g Spleen
  tissue uptake at 4 h: 0.43 %ID/g
  tissue uptake at 24 h: 0.47 %ID/g
  tissue uptake at 72 h: 0.64 %ID/g
In vivo, % ID/g Stomach
  tissue uptake at 4 h: 2.23 %ID/g
  tissue uptake at 24 h: 2.19 %ID/g
  tissue uptake at 72 h: 1.95 %ID/g
In vivo, % ID/g Tumor
  tissue uptake at 4 h: 14.6 %ID/g
  tissue uptake at 24 h: 14.8 %ID/g
  tissue uptake at 72 h: 6.83 %ID/g
